The nature of the data set: soluble on expression in E. coli; label from the status in PepcDB or PDB records.
As to “MLKKGNEMKAVIVYASVHHGNTKKIEEAMASVISADVIDVTRKIKPDLSGYDVIGFVSGVYFHTFHEGIKKCIEENMSSKGQKVFLVATCGLGYRDYTKGMKDTLAKKDVLCMGSFQCRGWDTYGIFGKIGGIAKKHPNDRDLKEAQEFVLKTVCKTNNLEHHHHHH”, the “soluble on expression in E. coli” value is “not soluble”.

For the sequence “MAKIGENVPLLIDKAVDFMASSQAFREYLNKTPPRDYVPSEVPSESAPIYLQRLEYYRRLYRPKEEERG”, the “soluble on expression in E. coli” value is “not soluble”.

Take “SLPKFGIEKRYNAAKSDIVSYLEKNNRNTSLGARFDMWENALIAIKEAPIFGHGSDGYDEFRHKQVKSKQMAKTTLNFGSLHNQYLESWVKRG”: the “soluble on expression in E. coli” value is reported as “not soluble”.

Take “MQSCLRLAASLLSAALLCLPAPGAAQTASPAKKELLKFNWGAPTADYYALYVAKDQKLFEEVGLEPNFYFFPSGAPLLAGLKSKSLDVITTGLATVFALGQNVPLKLIYWELDHAAAEGLVVDPAAGIKSYKDIAKAKAIGAPSGTCAQVSLVLMAKELNLKYSNLNIINIAPPLYGNAFKSKSIQAAVAWSPYSSILNADQLPVVNWASDYTPDQGVCPGLTGVRTEFMQQHPDIGLKLVQVQAKAMDMIRKDPELGIGVLMKYLSVSREVAKHIYDREFSRIPTYAQQIDPASPYSLAAKDAGLARKLLIASQALAEVGTIPAPLTPQAIAEAIDPSAIQRYMKGERK”: the “soluble on expression in E. coli” value is recorded as “not soluble”. As to “SFQGIRQPVTVTELVDSGILRPSTVNELESGQISYDEVGERIKDFLQGSSCIAGIYNETTKQKLGIYEAMKIGLVRPGTALELLEAQAATGFIVDPVSNLRLPVEEAYKRGLVGIEFKEKLLSAERAVTGYNDPETGNIISLFQAMNKELIEKGHGIRLLEAQIATGGIIDPKESHRLPVDIAYKRGYFNEELSEILSDPSDDTKGFFDPNTEENLTYLQLKERCIKDEETGLCLLPLKEKKKQVQTS”, the “soluble on expression in E. coli” value is listed as “soluble”. “MGTSSFTFPGFYRAKNMRSPECLDLLDSMNHFILHCHWEHADLNRTSLTERKRLGSKYEYENWFEEKRENSGTKFIKRSSSSKEIHYNCALVTNGDNRQFKKSKKLDQYCASGKVQFHDSGSVDVLGCCSHAGHDT”: the “soluble on expression in E. coli” value is recorded as “not soluble”. The same measure for “MSFSDHFSAVAASYAKARPRYPQRWFRYLARIVPDRQRVWDCATGNGQAAIALAEYFSEVIGSDASAAQVRQARSHPRVQYLVFPAEATPLAPASLDLITVAQAAHWFDLPQFYIEAQRLLRPGGVIALWGYGLGSLNPAIDHVFNHFYRDWLDPYWPPERQWVEQAYEGLSFPFEPLPTPTFSMQCDWTLFDLLAYLRTWSGVQQFQRQRGFDPVWAIAPELQRVWGDPQRYRRITWPLFAKVGRWQPLEHHHHHH”: “soluble”; for “MGSDKIHHHHHHMPASKIYLLDYGWLGGDIGWFLPGQLGGAMTNSERNPRRDWVEIPITGALIDHPDARILFDTGIAPDAMKTHERGLMEAFPITKMDDQNHIENQLKLIGLKPEDIDFVVISHLHLDHIGQAAVFKDSHVPIIVQKKELESALSLIWQGKSGAYDYSDLLPLKGAAWMPLDDPVFEIVDGVYAEFTGGHTAGHQVLTVKTEKGSMYTLTGDFLHLPKEYDVEAKGWLLSNATEWNSYIKKMKIREKARKQKLIISHDPGIWDKYPHAPKFVE”: “not soluble”.

Regarding “MNTAVKAAVAAALVMGVSSFANAAGSNTGTVTFTGTIEDSPCSIVVGDEHQTVNLGHIGTGSLMGGKESSKVDFHIGLENCAFTTEKEASTVFSAIGNESSANPGSVALMRIGGGEMAGSSIVIGNHLGSAIKLGDAYSENLTMNGSVAAAKQTLNFKAWVKGDSAATTIDTGEFSSTVNFTISYL”, the “soluble on expression in E. coli” value is “not soluble”.

For the sequence “MGSDKIHHHHHHARIVYLNHCYPSPKVITYTDNDTIKLGNYEIKQTGWEWGDGSLLKEKCPDYAYDQTDDGSEYPFDSVRVGFITLSVTKVKDDTTSLDLTSLAFEMGTNGDQYDMELFFALNPTLEALEIKLNAGEDVSFVIPYIMDEQQVSKKDWSRVDKMKLYMVLQYYPQKIRLCCN”, the “soluble on expression in E. coli” value is “not soluble”. The same measure for “MNDQELRAYLSQAKTIAVLGAHKDPSRPAHYVPRYLREQGYRVLPVNPRFQGEELFGEEAVASLLDLKEPVDILDVFRPPSALMDHLPEVLALRPGLVWLQSGIRHPEFEKALKEAGIPVVADRCLMVEHKRLFRGPLPL”: “soluble”.

Regarding “MRNTMRSFILRARSAPTDSQRLLDEIGGKCHTEILAHCMMNSLFTAQSHREDVVIHLVLESTRDYSRTITVEANEISDVGGFHEAALIALLVKALDASVGMGKEQTRVVQPGLTVRTISFEALLGELAEHHSLYMMDKKGDSIRDIKIGPNPCFILTDHIPMPKKSGNSMKRLGVEKISLGPKMLFASQCVTLIHNEIDHQEAGW”, the “soluble on expression in E. coli” value is “soluble”. The same measure for “MEHKIGRGLLLGGLLSRFAGFLQSSEESLTSSFASYSSSFFLLTNTRDKRRSERTHTYMQVAQIICAHGATISTTRATLQRAPQSLLATSPDATSDSDDKIVRILVEALRRSDMSIIVSESFDQWARLAVEAKRLGLISFVEAACPSTISISCHAALSTGRINPEVTFRKVHNIHFMAQKTTGKAFASSNPEPVKGTTTSPFFLLSFFFPFFCSFLLRFSPINFPLLLLMNTAIGEYVLRIVVSGKVIMCRAVFGDSLNECRDGGGTDFEMDRYTSR”: “not soluble”; for “MSLKWFNTLSHNRWLEQETDRIFNFGKNAVVPTGFGWLGNKGQIKEEMGTHLWITARMLHVYSVAASMGRPGAYDLVDHGIKAMNGALRDKKYGGWYACVNDQGVVDASKQGYQHFFALLGAASAVTTGHPEARKLLDYTIEVIEKYFWSEEEQMCLESWDEAFSQTEDYRGGNANMHAVEAFLIVYDVTHDKKWLDRALRIASVIIHDVARNGDYRVNEHFDSQWNPIRDYNKDNPAHRFRAYGGTPGHWIEWGRLMLHLHAALEARFETPPAWLLEDAKGLFHATIRDAWAPDGADGFVYSVDWDGKPIVRERVRWPIVEAMGTAYALYTLTDDSQYEEWYQKWWDYCIKYLMDYENGSWWQELDADNKVTTKVWDGKQDIYHLLHCLVIPRLPLAPGLAPAVAAGLLDINAKEGGSHHHHHH”: “soluble”; for “MRRSAAPSQLQGNSFKKPKFIPPGRSNPGLNEEITKLNPDIKLFEGVAINNTFLPSQNDLRICSLNLPSEESTREINNRDNCSGKYCFEAPTLATLDPPHTVHSAPKEVAVSKEQEEKSDSLVKYFSVVWCKPSKKKHKKWEGDAVLIVKGKSFILKNLEGKDIGRGIGYKFKELEKIEEGQTLMICGKEIEVMGVISPDDFSSGRCFQLGGGSTAISHSSQVARKCFSNPFKSVCKPSSKENRQNDFQNCKPRHDPYTPNSLVMPRPDKNHQWVFNKNCFPLVDVVIDPYLVYHLRPHQKEGIIFLYECVMGMRMNGRCGAILADEMGLGKTLQCISLIWTLQCQGPYGGKPVIKKTLIVTPGSLVNNWKKEFQKWLGSERIKIFTVDQDHKVEEFIKSIFYSVLIISYEMLLRSLDQIKNIKFDLLICDEGHRLKNSAIKTTTALISLSCEKRIILTGTPIQNDLQEFFALIDFVNPGILGSLSSYRKIYEEPIILSREPSASEEEKELGERRAAELTCLTGLFILRRTQEIINKYLPPKIENVVFCRPGALQIELYRKLLNSQVVRFCLQGLLENSPHLICIGALKKLCNHPCLLFNSIKEKECSSTCDKNEEKSLYKGLLSVFPADYNPLLFTEKESGKLQVLSKLLAVIHELRPTEKVVLVSNYTQTLNILQEVCKRHGYAYTRLDGQTPISQRQQIVDGFNSQHSSFFIFLLSSKAGGVGLNLIGGSHLILYDIDWNPATDIQAMSRVWRDGQKYPVHIYRLLTTGTIEEKIYQRQISKQGLCGAVVDLTKTSEHIQFSVEELKNLFTLHESSDCVTHDLLDCECTGEEVHTGDSLEKFIVSRDCQLGPHHQKSNSLKPLSMSQLKQWKHFSGDHLNLTDPFLERITENVSFIFQNITTQATGT”: “soluble”.

For the sequence “NIENSSLERIANILNSKLKGLTIEQINLEVINNIKKDLREYGHIFDCIMPNLYDILREADSTEVYKEGTMNIFNYPEFKDIEKAKEFLSVIDDRRILDTLFNASGGVTVNIGNENSIKEARDFSVVSSVYKYNGRPLGTIGIIGPTRIPYSKVIKVIMEVVDQINNNLDKMNNS”, the “soluble on expression in E. coli” value is “not soluble”.
